Tested on: MS2 coat protein
Assay: apparent KD of MS2 coat protein; higher = weaker reporter binding
Conditions: Eterna round: R107
Outline: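 With or without constant ligand, designed RNA switches in 100 mM Tris-HCl pH 7.5, 80 mM KCl and 4 mM MgCl2 were titrated with SNAP-549-labelled MS2 coat protein. Concentrations went up in twofold steps from 0.7 or 1.5 nM to 3 µM. The switches had been transcribed on-chip from Illumina sequencing clusters, and apparent KD is the per-design median of normalised cluster binding-curve fits.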

[1] = input ligand: theophylline 20 uM
[2] = input ligand: theophylline 2 mM
[3] = input ligand: tryptophan 2.4 mM

| Sequence | apparent KD of MS2 coat protein (input ligand: arginine 13.2 mM) | apparent KD of MS2 coat protein (input ligand: none) | apparent KD of MS2 coat protein [1] | apparent KD of MS2 coat protein [2] | apparent KD of MS2 coat protein [3] |
| --- | --- | --- | --- | --- | --- |
| UGUUUUUAUCGAAGGAGCGCCGCAUGAGGAUCACCCAUGCACAUGAGGAUCACCCAUGUCUGGCAGGUAGGUCGCGAUCAAUGGG [Same State Arginine B GF 11] | 33.7 nM | 41.9 nM | 48.7 nM | 47.9 nM | 44.3 nM |
| CCAGCCCUUCUAGAUACCAGCUUUCAAUAUAAGACAACUCACAUGAGGAUCACCCAUGUUAGCCCUUGGCAGCUAAGAUCCACAA [theeternabot_exclusion_MS2_Theo_B_32] | 46.6 nM | – | 67 nM | – | 48.5 nM |
| CACAUGAGGAUCACCCAUGUCUGAACUGAAGGAGCGCUAAACAAGGCAGGUAGGUCGCGGAAUUUUGUGUGCAUAUGCAUAUGGG [9.N] | 21.6 nM | 24.5 nM | 36.3 nM | 26.9 nM | 24.8 nM |
| AGCACUGUGACGGCCGCCACUAUAUUAGGGUGGUAAGGUUCAUAAAUACAUGAGGAUCACCCAUGUAGGACCGGGUCUCAGUGCA [Omei Trp Exc B A v2] | 11.8 nM | 12.6 nM | 11 nM | 13.5 nM | 17.1 nM |
| AACAUGAGGAUCACCCAUGUCCCAUGUGAACGAGGACCGGUACGGCCGCCACUCGAAUAAGGCGGCACAUGAGGAUCACCCACAU [AstrosSSTry#1] | 101 nM | – | 223 nM | 206 nM | – |
| AAAAUCCUACCUGAGGAUCACCCGGGUGAAGGAGCGCCCGAAAGGGCAGGUAGGUCGCACCUGAGGAUCACCCUGGUAACCUAAA [ArgEX 12 #DoubleMS2 #OpenEnded #AlternativeMS2] | 41.7 nM | 179 nM | 187 nM | 454 nM | 159 nM |
| GGGUGGUAGGCGGCCGCCACUGAUUUUCAUUCCUAGAUGACAUGAGGAUCACCCAUGUUUAUGGGCAGGACCGGGCCUGCUGUGG [aaaV] | 38.4 nM | – | 64.1 nM | 79.9 nM | – |
| AUAAUGGGUAUCGGAUUAUCAUGAUAUGAUACCAGAUACUUAGAUAUCCCUUGGCAGCAUGAGGACAUGAGGAUCACCCAUGUAU [#04 Exclusion-TheophyllineA] | 32.1 nM | – | 50.3 nM | – | 39.9 nM |
| GAAGAUCCGUAAGAUACCAGUGCAGAUCGGCACAUGAGGAUCACCCAUGUAAAGCAAGAACACCCUUGGCAGCUUUCGUAACAAC [theeternabot_sameState_MS2_Theo_B_15] | 66.9 nM | – | 64.8 nM | – | 109 nM |
| UUAAUCUUAUAUGAAAACAUAUAAGCAGAAGGAGCGUGAUAAAACACAGGUAGGUCGCUGAAGGGAACAUGAGGAUCACCCAUGU [AstrosSSArgA#4] | 22.7 nM | 22.4 nM | 33.8 nM | 30.6 nM | 28.4 nM |
| AGCGACAUGCGUGAUACCAGCUACAUGAGGAUCACCCAUGUGAGUAGGAAACUACUGUGUAGCCCUUGGCAGCACAGUGCAUGUC [Exclusion - Theophylline B (Freestyle 25)] | 11.4 nM | – | 15.9 nM | – | 10.3 nM |
| ACACGAAGCUGAAGGAGCGUGGUAUAAUUUUUUACAUGAGGAUCACCCAUGUCUCAUUUUUCACAGGUAGGUCGCAGAUGCGUGA [JR_SSArginiB_Sub015] | 54.5 nM | 71.5 nM | 81.6 nM | 117 nM | 78.7 nM |
| AUACCUAUUGAGUCGUGUUUCUAUUCAGAUACCAGACUUUUCGUUGUCCCUUGGCAGCUGUUUUACAUGAGGAUCACCCAUGUUG [JR_ExcTheophyA_Sub006] | 14.6 nM | – | 18.3 nM | – | 15 nM |
| UCGUGAGUUUCGGAUACCAGUGUUGUCGAUACAUGAGGAUCACCCAUGUUAGAGGAUGUACACCCUUGGCAGCCGGCUGUGGCGG [lplmullin] | 15.8 nM | – | 16.1 nM | – | 17.3 nM |
| UAAACUACACAUGAGGAUCACCCAUGUGGCCGAGGACCGGUACGGCCGCCACUCGUGUGUUAAUAAAAGAACUGCAAGGUUCUGU [Laorat] | 68.7 nM | – | 419 nM | 552 nM | – |
| ACAUGAGGAUCACCCAUGUUUGUUGUUCCUCGAGGACCGGUACGGCCGCCACUCGAACGAGUGGCGCGCGAGUGCGCACUCGCGC [aOa] | 12.7 nM | 11.9 nM | 18 nM | 13.4 nM | 11.7 nM |
| AUGUCGUUGAAUAUAGCGGCUUGGAGUGAUACCAGAAUGAUCUAAUUCCCUUGGCAGCAUUACAUGAGGAUCACCCAUGUUCCAG [SSTheo A #22] | 27.8 nM | – | 57.4 nM | – | 55.5 nM |
| GGUUACUCUACGGCCGCCACUGUAAAGUAAAGAUUACUGUACAUGACAUGAGGAUCACCCAUGUACAGGACCGGGUAGUGUAACC [Tryptophan B 15] | 32.2 nM | – | 46.3 nM | 35.5 nM | – |

| Sequence | apparent KD of MS2 coat protein (input ligand: arginine 13.2 mM) | apparent KD of MS2 coat protein (input ligand: none) | apparent KD of MS2 coat protein [1] | apparent KD of MS2 coat protein [2] | apparent KD of MS2 coat protein [3] |
| --- | --- | --- | --- | --- | --- |
| AAUGUAUUCCACAUGAGGAUCACCCAUGUGCGAGGACCGGUACGGCCGCCACUCGGUGUUGGGAUCAGUUCUGAAUACAUUAAUG [XTryp A #24] | 19.1 nM | – | 19.2 nM | 20.5 nM | – |
| UCCUCCUCCGCAAGGAGGAGGAGUUGCGAUACCAGCACGGUAACGUGCCCUUGGCAGCGCACAUGAGGAUCACCCAUGUCAUGUU [#1 Exclusion - Theophylline A Attempt #11 (HarryS)] | 15 nM | – | 24.5 nM | – | 17.1 nM |
| UAAUCAGUGCCGGUUCUCGGAUCCUCAUGUCGAGGACCGGUACGGCCGCCACUCGGAACAUGAGGAUCACCCAUGUAAUAAUAAU [#10 Exclusion Tryptophan A] | 40.7 nM | – | 101 nM | 162 nM | – |
| AACAUGAGGAUCACCCAUGUUGUAAGGGAAGGAGCGCCUAAUCAGGCAGGUAGGUCGCCCAACAUGAGGAUCACCCAUGUUGUAU [Exclusion Arginine A 2] | 38.9 nM | 75.3 nM | 89.2 nM | 66.9 nM | 76.5 nM |
| UUUUAGCAUCGAAGGAGCGCUGGUGAAACUGACUAUGGAACAUGAGGAUCACCCAUGUGCUAGCAGGUAGGUCGCGAUGCUAUUU [SSAB NP+V+V2 #10] | 16.9 nM | 17.6 nM | 20.7 nM | 18.1 nM | 14.9 nM |
| UUGUUGUUUGGAAGGAGCGUGGAUGAGUGUGGACAUGAGGAUCACCCAUGUUGGAUGAUACCGCAGGUAGGUCGCCGGGUGGUGG [11.aD] | 89.7 nM | 164 nM | 162 nM | 300 nM | 75.9 nM |
| GGUUACUCUACGGCCGCCACUGUAAUGUAAAGAUACCUGUACAUGACAUGAGGAUCACCCAUGUACAGGACCGGGUAGUGUAACC [Tryptophan B 17] | 144 nM | – | 312 nM | 343 nM | – |
| GUUAUAACAAAAGUUGUAACAGUGGGUGAACGAGGACCGGUACGGCCGCCACUCGGACAUGAGGAUCACCCAUGUCCAUGUGAAA [AstrosExyTryA#15] | 14.1 nM | – | 18.2 nM | 21.6 nM | – |
| GGAUAGGACAGAAGGAGCGUGAGAUGCAAAGCUUCAUUCCUCACAUGAGGAUCACCCAUGUCACAGGUAGGUCGCUGUCCUAUCG [#19 Exclusion - Arginine B] | 78.6 nM | 102 nM | 106 nM | 111 nM | 78.9 nM |
| ACUUGAUACUGAAGGAGCGUCGGAUAAACUCGCACAUGAGGAUCACCCAUGUAUAUGAAUCGGCAGGUAGGUCGCAGUAUCGAGU [#21 Same State - Arginine B] | 14.8 nM | 15.6 nM | 20.4 nM | 17.1 nM | 15.4 nM |
| UCGGGCCUUCUUUCUUGGCCCGUUACAGAAGGAGCGUCGGAAAUGACAGGUAGGUCGCUGAGAACAUGAGGAUCACCCAUGUAUU [SSAA #14] | 16.8 nM | 26.4 nM | 28.9 nM | 25.1 nM | 22.1 nM |
| AUUAACUGGUAAGAUACCAGAGUCGGGAUCUACAUGAGGAUCACCCAUGUUCUAAAGUCGCUCCCUUGGCAGCUUCAAUGAGUCG [theeternabot_sameState_MS2_Theo_B_27] | 23.3 nM | – | 45.9 nM | – | 34 nM |
| ACUAGUUGUGCAGAUACCAGAUAUGAGGAUCACCCAUAUUUGGGAUGUUCGCAUCUUCCUGUCCCUUGGCAGCUGUACAUCUAGA [Omei Theo B Exc v7] | 37.9 nM | 37.3 nM | 86.7 nM | 107 nM | 33.9 nM |
| GCUAUGGCUAGAAGGAGCGUGAAUUUCAGAAAACAUGAGGAUCACCCAUGUAAGGAUAUGACACAGGUAGGUCGCUAGCCAUAGC [SSAB NP+V+V2 #19] | 9.88 nM | 10.8 nM | 10.5 nM | 12.5 nM | 10.8 nM |
| UUUGAUAGGACAGAUACCAGCGUGUUGUAGAACAUGAGGAUCACCCAUGUAGUGAUCAAGCGCCCUUGGCAGCUGGUUUGUUAGG [7.L] | 184 nM | – | 350 nM | – | 363 nM |
| AUGCUUGUCAGAAGGAGCGUCUUUAACAUGAGGAUCACCCAUGUAUCAUGGAAUUUGAUGAGACAGGUAGGUCGCUGAAUAGUAA [JR_SSArginiB_Sub021] | 30 nM | 29.8 nM | 42.7 nM | 34.5 nM | 25.7 nM |
| AGCUCGCAUCCUCAAAGCGUCAAAGACGCACGAGGACCGGUACGGCCGCCACUCGACCUGAGGAUCACCCUGGUCUAAGCGAGCA [TrypAX 9 #SwitchBubble #AlternativeMS2 #MS2Late #CuTurnoff] | 29.7 nM | 36.2 nM | 49.2 nM | 48.8 nM | 381 nM |

— the supplement of paper PMC9170038
